These results are taken from patent US20110268740A1.

Experiment [1] concerns the target M2e-short (Influenza A virus (consensus)). The experiment in a line: ELISA, apparent affinity, purified scFv-msFcγ2c on immobilised M2e-short.
For experiment [2], the target named is M2e consensus peptide (free, soluble) (Influenza A virus (consensus of H1, H2 and H3 subtypes of human Influenza A viruses)). The experiment in a line: Friguet ELISA, free M2e peptide in solution. (In general: ELISA stands for enzyme-linked immunosorbent assay.)

SLLTEVETPIRNEWGCRCNDSSD (modifications not checked) [M2e consensus peptide (free, soluble)]: the results for the concentration for a half-maximal effect (EC50) with scFv-D005-msFcγ2c and with scFv-F052-msFcγ2c were 18.8 µM and 22 µM, respectively.

With SLLTEVETPIRNEWGC (modifications not checked) [M2e-short], the results for the EC50 with scFv-D005-msFcγ2c and with scFv-F052-msFcγ2c were 27.5 µM and 46.8 µM, respectively.

B1: scFv-F052-msFcγ2c (Fc fusion)
chain: DADPAQAAERVMTQSPDALAVSLGERATINCKSSQSLLYSSNNKNYLAWYQKKPGQPPKLLIYWASTRESGVPDRFSGSGSGTEFTLTINSVQAEDVAVYYCQQYFMTPITFGQGTKLEIKGGSSRSSSSGGGGSGGGGQVQLQESGGALVQPGRSLRLSCRTSGLNFGDYPINWVRQAPGKGLEWVGFIKSKSYGVTTEFAASVEGRFTISRDDSRGIAYLQMNSLKTEDTAVYYCTSSSGFLYYFDYWGQGTLVTVSSASTKGPSVTSGQAGRKLEPRVPITQNPCPPLKECPPCAAPDLLGGPSVFIFPPKIKDVLMISLSPMVTCVVVDVSEDDPDVQISWFVNNVEVHTAQTQTHREDYNSTLRVVSALPIQHQDWMSGKEFKCKVNNRALPSPIEKTISKPRGPVRAPQVYVLPPPAEEMTKKEFSLTCMITGFLPAEIAVDWTSNGRTEQNYKNTATVLDSDGSYFMYSKLRVQKSTWERGSLFACSVVHEGLHNHLTTKTISRSLGK
For B1, in experiment [1], the EC50 was determined as 0.0628 nM. Moreover, the Kd in experiment [2] stood at 0.005 µM.

B2: scFv-D005-msFcγ2c (Fc fusion)
chain: DADPAQAAELVMTQSPDSLAVSLGERATINCKSSQSVLYTSNNKNYLGWYQQKPGQPPNLLIYWASTRESGVPDRFSGSGSGTDFTLTINSVQAEDVAVYYCQQYFMTPITFGQGTRLEIKGGSSRSSSSGGGGSGGGGEVQLVESGGALVQPGRSLRLSCRTSGLNFGDYPINWVRQAPGKGLEWVGFIKSKSYGVTTEFAASVEGRFTISRDDSRGIAYLQMNSLKTEDTAVYYCTSSSGFLYYFDYWGQGTLVTVSSASTKGPSVTSGQAGRKLEPRVPITQNPCPPLKECPPCAAPDLLGGPSVFIFPPKIKDVLMISLSPMVTCVVVDVSEDDPDVQISWFVNNVEVHTAQTQTHREDYNSTLRVVSALPIQHQDWMSGKEFKCKVNNRALPSPIEKTISKPRGPVRAPQVYVLPPPAEEMTKKEFSLTCMITGFLPAEIAVDWTSNGRTEQNYKNTATVLDSDGSYFMYSKLRVQKSTWERGSLFACSVVHEGLHNHLTTKTISRSLGK
B2: the EC50 in experiment [1] amounted to 0.0809 nM. In addition, in experiment [2], the dissociation constant Kd was determined as 0.004 µM.

Broadly, the EC50 is the concentration that produces a half-maximal response. In general, Kd refers to a measure of binding affinity in units of concentration. Low values mean higher affinity, high ones lower affinity.
